Reference: publication PMC7066243

What was measured:
[1] = target: T1, ether-a-go-go 1 voltage-gated potassium channel (hEAG1) (human) (UniProt O95259)
T1 sequence: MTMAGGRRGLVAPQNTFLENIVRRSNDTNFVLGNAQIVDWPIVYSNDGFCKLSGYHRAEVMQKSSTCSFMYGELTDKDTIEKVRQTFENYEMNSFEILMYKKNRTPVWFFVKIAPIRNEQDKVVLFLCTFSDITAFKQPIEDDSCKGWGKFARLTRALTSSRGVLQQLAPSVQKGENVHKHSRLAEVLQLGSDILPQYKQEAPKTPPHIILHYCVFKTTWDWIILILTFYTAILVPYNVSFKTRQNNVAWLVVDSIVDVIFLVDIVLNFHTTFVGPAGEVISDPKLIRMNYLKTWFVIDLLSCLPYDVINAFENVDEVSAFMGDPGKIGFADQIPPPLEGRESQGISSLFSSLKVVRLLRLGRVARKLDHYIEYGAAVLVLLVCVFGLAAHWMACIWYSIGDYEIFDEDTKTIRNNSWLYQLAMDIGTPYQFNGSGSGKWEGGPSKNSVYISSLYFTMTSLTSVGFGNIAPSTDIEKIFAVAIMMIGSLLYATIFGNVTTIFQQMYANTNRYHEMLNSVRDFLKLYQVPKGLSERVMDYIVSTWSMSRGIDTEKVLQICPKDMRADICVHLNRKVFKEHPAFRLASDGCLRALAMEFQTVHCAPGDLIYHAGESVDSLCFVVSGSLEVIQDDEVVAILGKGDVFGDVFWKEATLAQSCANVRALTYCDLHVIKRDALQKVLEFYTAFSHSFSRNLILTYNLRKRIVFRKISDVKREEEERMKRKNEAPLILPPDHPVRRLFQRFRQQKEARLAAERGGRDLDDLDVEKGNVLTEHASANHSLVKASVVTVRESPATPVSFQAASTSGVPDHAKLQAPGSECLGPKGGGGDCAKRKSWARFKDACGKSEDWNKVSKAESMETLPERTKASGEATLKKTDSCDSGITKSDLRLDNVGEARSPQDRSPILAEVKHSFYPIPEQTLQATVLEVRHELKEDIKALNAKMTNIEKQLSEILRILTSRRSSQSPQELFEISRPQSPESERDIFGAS

[2] = target: T1, ether-a-go-go 1 voltage-gated potassium channel (hEAG1) (human); remark: listed apart in the source

Substance	inhibition of hEAG1 current at 5 µM (two-electrode voltage clamp, Xenopus laevis oocytes) [1] [%]	IC50 of inhibition of hEAG1 current (two-electrode voltage clamp, Xenopus laevis oocytes) [2] [µM]
gyroxin_B1.3 (from UniProt B0FXM1 25-262) (enzyme)	58	
BjSP (from UniProt Q5W959 25-258) (enzyme)	9.2	
mutant collinein-1 (His43Arg) (enzyme)		4.3
recombinant collinein-1 (enzyme)		2.5
native collinein-1 (enzyme)		4.2
